{
  "source": "patent CN111363043A",
  "about": "(FUZHOU MAIXIN BIOTECHNOLOGY DEV CO LTD, dated 2020)",
  "binders": {"B1": {"name": "抗CD20蛋白单克隆抗体 (secreted by mouse hybridoma cell line AbM58020-32A8-PU, CGMCC NO.17491) (antibody, V domains shown)", "VH": "EVKLQESGPSLVKPGASVKISCKASGNTFTDYYMNWVRQSHGQSLEWIGRFIPSTAKTNYNHKFKDKATLTLDTSLSTAYMQLNSLTSEDSAVYYCRSDFAFWGQGTLVTVSA", "VL": "DILMTQSPLSLSITIGQPASISCKSSQSLLYSNGKTYLNWLLQRPGQSPKRLIYIVSKLDSGVPDRFTGSGSGTDFTLKISRVEAEDLGVYYCGQGTHYPPTFGGGTKLEIK", "notes": "also called AbM58020-32A8-PU的CD20; AbM58020-32A8-PU杂交瘤分泌抗体"}},
  "biological_target": "T1, CD20蛋白 (UniProt P11836, 297 amino acids) (human, UniProt P11836 1-297)",
  "T1 construct": "whole, on cells; Endogenous CD20 in formalin-fixed paraffin tissue sections (B-cell lymphoma, tonsil, appendix) detected by IHC. 'Human' is stated for CD20 in the abstract; The species of the tissues is not explicitly stated",
  "T1 sequence (looked up)": "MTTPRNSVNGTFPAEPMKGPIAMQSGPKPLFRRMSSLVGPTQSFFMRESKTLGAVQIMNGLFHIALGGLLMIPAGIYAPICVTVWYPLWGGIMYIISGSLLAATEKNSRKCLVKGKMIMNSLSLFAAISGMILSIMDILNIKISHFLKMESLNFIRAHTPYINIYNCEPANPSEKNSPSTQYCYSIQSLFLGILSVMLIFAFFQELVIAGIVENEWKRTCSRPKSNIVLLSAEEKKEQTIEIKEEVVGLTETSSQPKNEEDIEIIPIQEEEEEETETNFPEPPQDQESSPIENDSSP",
  "experiment": "IHC, appendix tissue (Fig. 5)",
  "data": [
    {"binder": "B1", "values": [
      {"measurement": "binding result", "value": "binds"}
    ]}
  ]
}
